According to patent US9745384B2, “Peptides useful for modulating histone demethylase function” (The Brigham and Women's Hospital, Inc., priority 2012, dated 2017):

How the values were obtained:
[1] = molecular target: T1, His-LSD2 (Homo sapiens, UniProt Q8NB78); experiment: Nucleosome demethylation assay (NPAC cofactor activity for LSD2, immunoblot); format: biochemical; settings: for Cofactor activity: stimulation of LSD2 demethylation of nucleosomal H3K4me2: threshold dosage of His-LSD2, nucleosomes purified from HeLa
T1 construct: typically 0.5 μg full-length His-LSD2; made in house; host or cells: Sf9 insect cells
T1 sequence (Q8NB78 1-822): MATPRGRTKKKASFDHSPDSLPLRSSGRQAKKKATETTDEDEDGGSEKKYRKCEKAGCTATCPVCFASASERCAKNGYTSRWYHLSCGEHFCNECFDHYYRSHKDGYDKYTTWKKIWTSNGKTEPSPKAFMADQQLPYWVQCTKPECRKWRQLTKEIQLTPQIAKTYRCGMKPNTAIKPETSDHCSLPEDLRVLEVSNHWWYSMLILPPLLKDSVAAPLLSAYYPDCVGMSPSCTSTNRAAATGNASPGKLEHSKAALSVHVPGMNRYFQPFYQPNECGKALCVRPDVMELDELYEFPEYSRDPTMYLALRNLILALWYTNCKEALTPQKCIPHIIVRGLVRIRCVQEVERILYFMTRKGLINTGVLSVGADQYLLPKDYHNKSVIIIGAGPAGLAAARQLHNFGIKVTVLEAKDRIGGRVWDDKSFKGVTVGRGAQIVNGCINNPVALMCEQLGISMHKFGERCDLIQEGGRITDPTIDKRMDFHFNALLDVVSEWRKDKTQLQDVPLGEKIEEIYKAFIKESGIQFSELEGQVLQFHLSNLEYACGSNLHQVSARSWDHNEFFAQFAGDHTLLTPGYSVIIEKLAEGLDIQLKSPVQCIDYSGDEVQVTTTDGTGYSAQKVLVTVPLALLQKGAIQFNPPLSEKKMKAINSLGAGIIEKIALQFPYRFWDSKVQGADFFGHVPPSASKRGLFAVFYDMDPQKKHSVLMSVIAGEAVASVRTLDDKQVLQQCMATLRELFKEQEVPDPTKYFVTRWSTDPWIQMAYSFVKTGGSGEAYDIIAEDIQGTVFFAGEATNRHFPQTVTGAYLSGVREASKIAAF
Procedure: For nucleosome demethylation assays, typically 0.5 μg full-length His-LSD2, 1 μg NPAC protein or peptides, and 2 μg nucleosomes purified from HeLa were used, and demethylation efficiency was analyzed by SDS-PAGE electrophoresis and immunoblot using methylation specific anti-histone H3 antibodies as previously described (Shi et al. 2004).

[2] = molecular target: T2, LSD2 (Homo sapiens, UniProt Q8NB78); experiment: Immunofluorescence of histone methylation in cells coexpressing LSD2 and NPAC; format: cell-based; design: expressed in transfected cells; host or cells: U2OS
T2 sequence (Q8NB78 1-822): T1 sequence (Q8NB78 1-822)
Procedure: FIG. 1A depicts a schematic of NPAC domain structure. AT, AT-hook motif. PWWP, Pro-Trp-Trp-Pro domain (SEQ ID NO: 63). […] Tandem affinity purified NPAC and LSD2 complexes were incubated with nucleosomes purified from HeLa, and analyzed by immunoblot using indicated antibodies. […] The amount of LSD2 enzyme and NPAC cofactor proteins used in each reaction is indicated. Demethylation was assessed by Immunoblot using indicated antibodies. […] Representatives with similar levels of GFP-LSD2 are shown. See also FIGS. 7A-7D.
FIG. 7A depicts the determination of the threshold dosage of purified LSD2 required for nucleosomal H3K4 demethylation. 2 μg of nucleosomes purified from HeLa were incubated with various amount of His-LSD2 proteins for 2 hours at 30° C. The demethylation reactions were analyzed by immunoblotting using indicated antibodies. […] 2 μg LSD1 in combination with 5 μg purified NPAC or CoREST protein was used for histone demethylase assays. […] Transfected cells are marked by arrows; cells shown significant reduction of H3K4me1 are marked by dotted circles. […] In contrast, coexpression of LSD2 and NPAC induces obvious global decrease of H3K4me1. […] FIG. 7D depicts immunofluorescence analyses of H3K9me2 demethylation in cells coexpressing LSD2 and full-length NPAC.

B1: NPAC: full-length human NPAC/GLYR1 (protein ID: Q49A26), recombinant, LSD2 cofactor (protein)
chain: MAAVSLRLGDLVWGKLGRYPPWPGKIVNPPKDLKKPRGKKCFFVKFFGTEDHAWIKVEQLKPYHAHKEEMIKINKGKRFQQAVDAVEEFLRRAKGKDQTSSHNSSDDKNRRNSSEERSRPNSGDEKRKLSLSEGKVKKNMGEGKKRVSSGSSERGSKSPLKRAQEQSPRKRGRPPKDEKDLTIPESSTVKGMMAGPMAAFKWQPTASEPVKDADPHFHHFLLSQTEKPAVCYQAITKKLKICEEETGSTSIQAADSTAVNGSITPTDKKIGFLGLGLMGSGIVSNLLKMGHTVTVWNRTAEKCDLFIQEGARLGRTPAEVVSTCDITFACVSDPKAAKDLVLGPSGVLQGIRPGKCYVDMSTVDADTVTELAQVIVSRGGRFLEAPVSGNQQLSNDGMLVILAAGDRGLYEDCSSCFQAMGKTSFFLGEVGNAAKMMLIVNMVQGSFMATIAEGLTLAHVTGQSQQTLLDILNQGQLASIFLDQKCQNILQGNFKPDFYLKYIQKDLRLAIALGDAVNHPTPMAAAANEVYKRAKALDQSDNDMSAVYRAYIH
**Q.** Which “Demethylase activity of NPAC itself” value ([1]; NPAC alone, without LSD2) does the source give for B1 here?
**A.** The value was “no demethylase activity”.

**Q.** And the “Cofactor activity: stimulation of LSD2 demethylation of nucleosomal H3K4me2” value ([1]; listed as His-NPAC)?
**A.** Its value is “stimulated LSD2 activity in a dose-dependent manner”.

**Q.** And the “Cofactor activity: stimulation of LSD2 demethylation of nucleosomal H3K4me2” value ([1]; listed as wild-type NPAC)?
**A.** The value was “robust activity”.

**Q.** And the “Change of H3K9me2 and other histone marks in cells” value ([2]; coexpression of NPAC and LSD2)?
**A.** Its value is “no detectable changes”.

**Q.** What about the “Depletion of di- and mono-methylated H3K4 in cells” value ([2]; coexpression of NPAC and LSD2 vs LSD2 alone, U2OS) of the same molecule?
**A.** The value was “much more pronounced depletion of di- and mono-methylated H3K4 in cells than expressing LSD2 alone”.
